B1: Ribosomal RNA-processing protein 7 (Saccharomyces cerevisiae), P25368 (parent)
chain: MGIEDISAMKNGFIVVPFKLPDHKALPKSQEASLHFMFAKRHQSSNSNESDCLFLVNLPLLSNIEHMKKFVGQLCGKYDTVSHVEELLYNDEFGLHEVDLSALTSDLMSSTDVNEKRYTPRNTALLKFVDAASINNCWNALKKYSNLHAKHPNELFEWTYTTPSFTTFVNFYKPLDIDYLKEDIHTHMAIFEQREAQAQEDVQSSIVDEDGFTLVVGKNTKSLNSIRKKILNKNPLSKHENKAKPISNIDKKAKKDFYRFQVRERKKQEINQLLSKFKEDQERIKVMKAKRKFNPYT
partner: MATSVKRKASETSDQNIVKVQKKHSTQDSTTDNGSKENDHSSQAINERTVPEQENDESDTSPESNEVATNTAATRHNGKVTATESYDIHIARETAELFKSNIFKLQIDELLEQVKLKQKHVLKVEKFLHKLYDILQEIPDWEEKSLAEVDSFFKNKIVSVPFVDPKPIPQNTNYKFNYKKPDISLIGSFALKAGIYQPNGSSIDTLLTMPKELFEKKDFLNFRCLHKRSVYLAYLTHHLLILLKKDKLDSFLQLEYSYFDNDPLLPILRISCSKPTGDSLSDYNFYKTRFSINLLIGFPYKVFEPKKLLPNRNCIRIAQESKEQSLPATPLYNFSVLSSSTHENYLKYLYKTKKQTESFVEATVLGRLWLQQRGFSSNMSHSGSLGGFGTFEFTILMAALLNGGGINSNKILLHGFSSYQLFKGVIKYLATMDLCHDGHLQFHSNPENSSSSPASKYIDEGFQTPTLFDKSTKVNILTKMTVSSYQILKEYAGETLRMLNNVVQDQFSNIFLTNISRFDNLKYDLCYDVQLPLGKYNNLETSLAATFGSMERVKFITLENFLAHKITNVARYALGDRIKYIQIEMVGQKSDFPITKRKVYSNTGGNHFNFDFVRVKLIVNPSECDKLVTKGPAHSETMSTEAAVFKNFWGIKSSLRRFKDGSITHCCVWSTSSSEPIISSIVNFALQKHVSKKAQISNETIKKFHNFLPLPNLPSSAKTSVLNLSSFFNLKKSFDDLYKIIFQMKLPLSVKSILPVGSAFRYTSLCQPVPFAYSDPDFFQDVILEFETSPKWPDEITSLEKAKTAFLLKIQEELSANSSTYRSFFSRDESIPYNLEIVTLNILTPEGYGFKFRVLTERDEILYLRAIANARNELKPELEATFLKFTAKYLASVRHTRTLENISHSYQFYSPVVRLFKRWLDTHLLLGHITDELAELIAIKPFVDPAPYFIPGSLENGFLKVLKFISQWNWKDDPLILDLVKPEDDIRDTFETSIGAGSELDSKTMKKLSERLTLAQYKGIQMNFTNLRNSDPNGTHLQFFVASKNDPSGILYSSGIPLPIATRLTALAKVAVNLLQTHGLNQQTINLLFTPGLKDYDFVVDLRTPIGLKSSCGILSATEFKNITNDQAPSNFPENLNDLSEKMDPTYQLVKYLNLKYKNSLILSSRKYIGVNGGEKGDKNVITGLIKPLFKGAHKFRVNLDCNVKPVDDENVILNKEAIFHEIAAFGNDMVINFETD

Variants of: B1
Conditions: with utp22_yeast UTP22, P53254

Variant	effect of a mutation on the interaction
MGIEDISAMKNGFIVVPFKLPDHKALPKSQEASLHFMDAKRHQSSNSNESDCLFLVNLPLLSNIEHMKKFVGQLCGKYDTVSHVEELLYNDEFGLHEVDLSALTSDLMSSTDVNEKRYTPRNTALLKFVDAASINNCWNALKKYSNLHAKHPNELFEWTYTTPSFTTFVNFYKPLDIDYLKEDIHTHMAIFEQREAQAQEDVQSSIVDEDGFTLVVGKNTKSLNSIRKKILNKNPLSKHENKAKPISNIDKKAKKDFYRFQVRERKKQEINQLLSKFKEDQERIKVMKAKRKFNPYT [F38D]	disrupting interaction strength

From IntAct's records for PubMed 24130456
